Data taken from article PMC4830570, “CD36 Differently Regulates Macrophage Responses to Smooth and Rough Lipopolysaccharide” (PLoS ONE, 2016).

Tests used:
[1] = biological target: T1, CD36 on the surface of mouse peritoneal exudate macrophages (mouse (endogenous in peritoneal exudate …, UniProt Q08857 1-472)); experiment: cellular ELISA; rCD14 with 1 μg/ml S-LPS on adherent PEMs, incubation on ice (0°C); bound rCD14 detected with HRP-anti-Fc; conditions: one partner purified
T1 construct: CD36, mouse, endogenous on the surface of peritoneal exudate macrophages; also called CD36 on PEMs; endogenous CD36; source: endogenous, on adherent thioglycollate-elicited peritoneal exudate macrophages of C57BL/6 mice

[2] = biological target: T1, CD36 on the surface of mouse peritoneal …; experiment: cellular ELISA; 5 μg/ml rCD14 with 1 μg/ml S-LPS on adherent PEMs, 50 min at 37°C in FCS-RPMI; bound rCD14 detected with HRP-anti-Fc; conditions: one partner purified

T1 sequence (Q08857 whole entry): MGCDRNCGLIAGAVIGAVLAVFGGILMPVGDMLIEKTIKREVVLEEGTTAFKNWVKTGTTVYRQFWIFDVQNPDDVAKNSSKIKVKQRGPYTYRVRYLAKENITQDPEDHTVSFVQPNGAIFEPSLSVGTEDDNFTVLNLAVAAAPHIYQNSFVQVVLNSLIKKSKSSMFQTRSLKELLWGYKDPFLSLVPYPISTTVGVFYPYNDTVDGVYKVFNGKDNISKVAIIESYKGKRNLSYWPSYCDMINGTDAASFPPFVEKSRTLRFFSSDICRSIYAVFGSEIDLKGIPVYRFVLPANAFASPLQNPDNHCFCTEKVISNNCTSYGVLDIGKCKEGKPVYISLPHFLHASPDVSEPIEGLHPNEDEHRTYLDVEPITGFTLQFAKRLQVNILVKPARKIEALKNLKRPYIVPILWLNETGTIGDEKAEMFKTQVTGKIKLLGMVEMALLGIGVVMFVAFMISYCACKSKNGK

B1: recombinant mouse CD14 tagged with the Fc fragment of human IgG1 (Fc fusion, UniProt P10810 16-336, looked up)
chain: SPAPPEPCELDEESCSCNFSDPKPDWSSAFNCLGAADVELYGGGRSLEYLLKRVDTEADLGQFTDIIKSLSLKRLTVRAARIPSRILFGALRVLGISGLQELTLENLEVTGTAPPPLLEATGPDLNILNLRNVSWATRDAWLAELQQWLKPGLKVLSIAQAHSLNFSCEQVRVFPALSTLDLSDNPELGERGLISALCPLKFPTLQVLALRNAGMETPSGVCSALAAARVQLQGLDLSHNSLRDAAGAPSCDWPSQLNSLNLSFTGLKQVPKGLPAKLSVLDLSYNRLDRNPSPDELPQVGNLSLKGNPFLDSESHSEKFN
notes: CD14, mouse, recombinant soluble receptor from R&D Systems; also called rCD14; source: bought: R&D Systems
[1]
  fold higher binding on ice than at 37°C: ~2 fold
[2]
  fold increase of binding with S-LPS over binding without LPS: > 25 fold
